According to the supplement of paper PMC9112550, “Optimization of the antimicrobial peptide Bac7 by deep mutational scanning” (BMC Biology, 2022):

Test system: Escherichia coli TOP10
Experiment: shrunken log2 fold change of peptide-encoding DNA abundance (4.5 h post-induction vs induction); higher = less antimicrobial activity (less host growth inhibition)
Settings: time post-induction: 4.5 h; library: site-saturation at positions 5, 18, 19, 20
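Also: peptides expressed intracellularly from a pBAD plasmid library in pooled LB shake-flask culture, induced with 0.3% L-arabinose, DNA abundance read by NGS, three biological replicates, DESeq2 with apeglm shrinkage.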

| Sequence | shrunken log2 fold change |
| --- | --- |
| RRIRGRPPRLPRPRPRPRFNPRP | 0.0824 |
| RRIRGRPPRLPRPRPRPRKCPRP | 0.666 |
| RRIRGRPPRLPRPRPRPRKHPRP | 0.632 |
| RRIRGRPPRLPRPRPRPRKPPRP | 0.399 |
| RRIRGRPPRLPRPRPRPRLMPRP | 0.617 |
| RRIRGRPPRLPRPRPRPRLWPRP | 1.36 |
| RRIRGRPPRLPRPRPRPRMKPRP | 0.426 |
| RRIRGRPPRLPRPRPRPRNDPRP | 0.113 |
| RRIRGRPPRLPRPRPRPRNIPRP | 0.0648 |
| RRIRGRPPRLPRPRPRPRQSPRP | 0.647 |
| RRIRGRPPRLPRPRPRPRSRPRP | 0.368 |
| RRIRGRPPRLPRPRPRPRTHPRP | 0.666 |
| RRIRGRPPRLPRPRPRPRWNPRP | 0.423 |
| RRIRGRPPRLPRPRPRPRWPPRP | 0.973 |
| RRIRGRPPRLPRPRPRPRWWPRP | 0.667 |
| RRIRGRPPRLPRPRPRPRYCPRP | 0.295 |
| RRIRGRPPRLPRPRPRPSAAPRP | 2.09 |
| RRIRGRPPRLPRPRPRPSCNPRP | 0.588 |
| RRIRGRPPRLPRPRPRPSDWPRP | 0.251 |
| RRIRGRPPRLPRPRPRPSELPRP | 0.404 |
| RRIRGRPPRLPRPRPRPSERPRP | 0.278 |
| RRIRGRPPRLPRPRPRPSETPRP | 0.223 |
| RRIRGRPPRLPRPRPRPSFFPRP | 0.202 |
| RRIRGRPPRLPRPRPRPSFLPRP | -0.118 |
| RRIRGRPPRLPRPRPRPSFWPRP | 0.66 |

| Sequence | shrunken log2 fold change |
| --- | --- |
| RRIRGRPPRLPRPRPRPSGIPRP | 0.0684 |
| RRIRGRPPRLPRPRPRPSHEPRP | -0.418 |
| RRIRGRPPRLPRPRPRPSHWPRP | 0.157 |
| RRIRGRPPRLPRPRPRPSIMPRP | 0.16 |
| RRIRGRPPRLPRPRPRPSIWPRP | 0.511 |
| RRIRGRPPRLPRPRPRPSKEPRP | 0.289 |
| RRIRGRPPRLPRPRPRPSMEPRP | 0.467 |
| RRIRGRPPRLPRPRPRPSMYPRP | 0.173 |
| RRIRGRPPRLPRPRPRPSPLPRP | 0.539 |
| RRIRGRPPRLPRPRPRPSQVPRP | 0.235 |
| RRIRGRPPRLPRPRPRPSRGPRP | 0.605 |
| RRIRGRPPRLPRPRPRPSSDPRP | 0.439 |
| RRIRGRPPRLPRPRPRPSSKPRP | 0.0383 |
| RRIRGRPPRLPRPRPRPSSWPRP | 1.05 |
| RRIRGRPPRLPRPRPRPSTNPRP | 0.271 |
| RRIRGRPPRLPRPRPRPSTVPRP | 0.164 |
| RRIRGRPPRLPRPRPRPSVDPRP | 0.861 |
| RRIRGRPPRLPRPRPRPSVEPRP | 0.651 |
| RRIRGRPPRLPRPRPRPSWGPRP | 0.0507 |
| RRIRGRPPRLPRPRPRPSYGPRP | -0.137 |
| RRIRGRPPRLPRPRPRPTALPRP | 1.12 |
| RRIRGRPPRLPRPRPRPTDCPRP | 0.275 |
| RRIRGRPPRLPRPRPRPTDQPRP | 0.846 |
| RRIRGRPPRLPRPRPRPTEVPRP | 0.311 |
| RRIRGRPPRLPRPRPRPTGWPRP | 1.04 |

| Sequence | shrunken log2 fold change |
| --- | --- |
| RRIRGRPPRLPRPRPRPTLKPRP | 0.769 |
| RRIRGRPPRLPRPRPRPTMMPRP | 0.541 |
| RRIRGRPPRLPRPRPRPTNPPRP | 0.367 |
| RRIRGRPPRLPRPRPRPTNQPRP | 0.579 |
| RRIRGRPPRLPRPRPRPTNSPRP | 0.319 |
| RRIRGRPPRLPRPRPRPTPDPRP | 1.24 |
| RRIRGRPPRLPRPRPRPTQCPRP | 0.222 |
| RRIRGRPPRLPRPRPRPTQQPRP | 0.94 |
| RRIRGRPPRLPRPRPRPTQRPRP | 0.739 |
| RRIRGRPPRLPRPRPRPTREPRP | 0.994 |
| RRIRGRPPRLPRPRPRPTSKPRP | 0.69 |
| RRIRGRPPRLPRPRPRPTSSPRP | 0.425 |
| RRIRGRPPRLPRPRPRPTSWPRP | 0.782 |
| RRIRGRPPRLPRPRPRPTSYPRP | 0.105 |
| RRIRGRPPRLPRPRPRPTTSPRP | 1.11 |
| RRIRGRPPRLPRPRPRPTVFPRP | 0.993 |
| RRIRGRPPRLPRPRPRPTVGPRP | 0.832 |
| RRIRGRPPRLPRPRPRPTVRPRP | 0.452 |
| RRIRGRPPRLPRPRPRPTVSPRP | 0.731 |
| RRIRGRPPRLPRPRPRPTVWPRP | 1.32 |
| RRIRGRPPRLPRPRPRPTWSPRP | 0.977 |
| RRIRGRPPRLPRPRPRPVAFPRP | 0.722 |
| RRIRGRPPRLPRPRPRPVARPRP | 0.58 |
| RRIRGRPPRLPRPRPRPVDHPRP | 0.193 |
| RRIRGRPPRLPRPRPRPVDKPRP | 0.319 |
